# Results: article PMC10801562 (Antibodies, 2024)
# Positions count from the first letter of the chain named.
# T1: recombinant human CD3ε-CD3δ heterodimeric protein (CD3εδ) (Homo sapiens)
# T1 construct: human CD3ε of the recombinant CD3εδ heterodimer; human CD3δ of the recombinant CD3εδ heterodimer; source: in-house prepared
# T1 chain 1: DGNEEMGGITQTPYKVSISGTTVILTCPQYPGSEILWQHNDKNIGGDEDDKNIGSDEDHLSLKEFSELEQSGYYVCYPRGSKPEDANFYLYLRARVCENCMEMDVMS
# T1 chain 2: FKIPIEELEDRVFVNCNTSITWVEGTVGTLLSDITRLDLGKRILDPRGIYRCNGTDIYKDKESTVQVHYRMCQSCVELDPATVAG
# B1: mSP34 mIgG2a V1+C19, homodimeric antibody with FAST-Ig V1+C19 mutations (antibody, V domains shown)
# VH: EVQLVESGGGLVQPKGSLKLSCAASGFTFNTYAMNWVREAPGKGLEWVARIRSKYNNYATYYADSVKDRFTISRDDSQSILYLQMNNLKTEDTAMYYCVRHGNFGNSYVSWFAYWGQGTLVTVSA
# VL: QAVVTQESALTTSPGETVTLTCRSSTGAVTTSNYANWVQKKPDHLFTGLIGGTNKRAPGVPARFSGSLIGDKAALTITGAQTEDEAIYFCALWYSNLWVFGGGTKLTVL
# notes: VH of mSP34; mouse IgG2a (mIgG2a) heavy chain constant region; numbers count on: Eu numbering; VL (lambda) of mSP34; mouse lambda light chain constant region (CL); numbers count on: Kabat numbering; Whole IgG of one HC and one LC; also called anti-CD3; H2L2H2L2; source: Expi293F, transiently expressed, purified (Ab-Capcher MAG2, MonoSpin ProA or MonoSpin ProG); copies: 2 + 2
# B2: mSP34 mIgG1, homodimeric antibody without FAST-Ig mutations (antibody, V domains shown)
# VH: B1 VH with E39Q
# VL: B1 VL with K40E
# notes: VH of the original mouse antibody mSP34; mouse IgG1 (mIgG1) heavy chain constant region; numbers count on: Eu numbering; VL (lambda) of the original mouse antibody mSP34; mouse lambda light chain constant region (CL); Whole IgG of one HC and one LC; also called anti-CD3; H2L2H2L2; source: Expi293F, transiently expressed, purified (Ab-Capcher MAG2 or MonoSpin ProG); copies: 2 + 2
# B3: mUCHT1 mIgG2a V1+C19, homodimeric antibody with FAST-Ig V1+C19 mutations (antibody, V domains shown)
# VH: EVQLQQSGPELVKPGASMKISCKASGYSFTGYTMNWVKESHGKNLEWMGLINPYKGVSTYNQKFKDKATLTVDKSSSTAYMELLSLTSEDSAVYYCARSGYYGDSDWYFDVWGQGTTLTVFS
# VL: DIQMTQTTSSLSASLGDRVTISCRASQDIRNYLNWYQKKPDGTVKLLIYYTSRLHSGVPSKFSGSGSGTDYSLTISNLEQEDIATYFCQQGNTLPWTFAGGTKLEIK
# notes: VH of mUCHT1; mouse IgG2a (mIgG2a) heavy chain constant region; numbers count on: Eu numbering; VL of mUCHT1; mouse kappa light chain constant region (CL); numbers count on: Kabat numbering; Whole IgG of one HC and one LC; also called anti-CD3; H2L2H2L2; source: Expi293F, transiently expressed, purified (Ab-Capcher MAG2, MonoSpin ProA or MonoSpin ProG); copies: 2 + 2
# B4: mUCHT1 mIgG1, homodimeric antibody without FAST-Ig mutations (antibody, V domains shown)
# VH: B3 VH with E39Q
# VL: B3 VL with K38Q
# notes: VH of the original mouse antibody mUCHT1; mouse IgG1 (mIgG1) heavy chain constant region; numbers count on: Eu numbering; VL of the original mouse antibody mUCHT1; mouse kappa light chain constant region (CL); Whole IgG of one HC and one LC; also called anti-CD3; H2L2H2L2; source: Expi293F, transiently expressed, purified (Ab-Capcher MAG2 or MonoSpin ProG); copies: 2 + 2
# Molecular target: T1, recombinant human CD3ε-CD3δ …
# Assay: SPR; Biacore T200, 37 °C, pH 7.4, PB-P+; antibody captured (630 RU) by anti-mouse IgG (Fc) antibody on a CM4 chip; human CD3εδ as analyte, 1.2-4800 nmol/L; 1:1 binding model (mUCHT1, mSP34)
# Conditions: both partners purified
row,Kd,Binder
1,0.0257 µM,B1
2,0.0209 µM,B2
3,0.00132 µM,B3
4,0.00145 µM,B4
